These results are taken from the Human Domainome abundance scans (Beltran et al. 2025).

B1: POU domain, class 4, transcription factor 2, residues 256 to 327; numbered along this chain, Q12837 (parent)
chain: RDLEAFAERFKQRRIKLGVTQADVGSALANLKIPGVGSLSQSTICRFESLTLSHNNMIALKPILQAWLEEAE

± gives the uncertainty stated by the source.

The variants in this series derive from B1. Nature of the series: abundance fitness (aPCA) (normalised: wild type 0, dead -1); higher = more abundant; growth selection in yeast, the domain comes from the species named. Conditions: Homo sapiens.
Take L52E: the abundance fitness is -0.732 ± 0.22. The same measure for L52T: -0.683 ± 0.15; for L52S: -0.849 ± 0.13; for L52M: -0.324 ± 0.19. Take K32W: the abundance fitness is -0.188 ± 0.082.

Regarding K32Y, the abundance fitness was determined as 0.061 ± 0.19. Regarding K32Q, the abundance fitness is -0.012 ± 0.069. The same measure for K32T: -0.112 ± 0.11; for K32D: 0.054 ± 0.23. Take K32P: the abundance fitness is -0.33 ± 0.093. The same measure for K32S: -0.072 ± 0.065; for K32N: 0.189 ± 0.3. The same measure for K32G: -0.24 ± 0.077; for K32I: -0.181 ± 0.058; for D23R: -0.243 ± 0.045. The same measure for D23C: -0.678 ± 0.16; for D23H: -0.127 ± 0.1; for D23L: -0.252 ± 0.062. Take D23A: the abundance fitness is -0.172 ± 0.069. The same measure for D23Y: -0.299 ± 0.38.

On to D23V, for which the abundance fitness was -0.403 ± 0.087. The figure for L60T is -0.436 ± 0.14; for L60S it is -0.77 ± 0.11.

In the case of L60M, the abundance fitness was -0.038 ± 0.049. In the case of L60G, the abundance fitness is -0.713 ± 0.13. On to L60Y, for which the abundance fitness is -0.081 ± 0.31.

With L60Q, the abundance fitness is -0.843 ± 0.16. Regarding L60N, the abundance fitness is -0.682 ± 0.25.

With M57Q, the abundance fitness was -0.859 ± 0.21.

On to M57V, for which the abundance fitness was -0.54 ± 0.11. The same measure for M57E: -0.565 ± 0.086; for Q65G: -0.106 ± 0.043; for Q65A: -0.084 ± 0.052. The same measure for Q65S: -0.028 ± 0.058; for Q65K: -0.074 ± 0.076. On to Q65M, for which the abundance fitness is -0.235 ± 0.099. The same measure for Q65P: -0.528 ± 0.081; for Q65R: -0.37 ± 0.079; for Q65N: -0.309 ± 0.15.

In the case of E72A, the abundance fitness is -0.617 ± 0.28. With E8R, the abundance fitness worked out at 0.031 ± 0.041. The figure for E8P is -0.862 ± 0.097; for E8K it is 0.007 ± 0.11. Take E8G: the abundance fitness is -0.119 ± 0.056. The figure for E8L is -0.072 ± 0.064.

As to E8Y, the abundance fitness stood at 0.036 ± 0.073. Consider I58E, for which the abundance fitness was -0.258 ± 0.12.

As for I58V, the abundance fitness was -0.028 ± 0.081.

Consider I58A, for which the abundance fitness was -0.139 ± 0.079.

Consider I58R, for which the abundance fitness came to 0.07 ± 0.045. Turning to I58H, the abundance fitness is -0.237 ± 0.23. The figure for Q12C is -0.865 ± 0.43; for Q12W it is -0.269 ± 0.094.

For the variant Q12F, the abundance fitness was -0.298 ± 0.21. For the variant Q12S, the abundance fitness was -0.186 ± 0.065. The figure for Q12D is -0.148 ± 0.16; for Q12V it is -0.232 ± 0.091. In the case of A59M, the abundance fitness was -0.003 ± 0.075. Turning to A59G, the abundance fitness is -0.169 ± 0.097.

With A59Y, the abundance fitness is -0.026 ± 0.095. Regarding A59C, the abundance fitness was -0.431 ± 0.12.

In the case of A59R, the abundance fitness is -0.032 ± 0.043. The same measure for K16T: -0.015 ± 0.072. The figure for K16V is -0.146 ± 0.082; for K16Q it is 0.004 ± 0.076. The figure for R1T is -0.186 ± 0.14. As for R1G, the abundance fitness amounted to 0.055 ± 0.078. The same measure for R1L: -0.354 ± 0.2; for P34K: -0.008 ± 0.088; for P34A: -0.244 ± 0.094. In the case of P34I, the abundance fitness is -0.402 ± 0.22. Turning to Q21I, the abundance fitness is 0.151 ± 0.3. The same measure for Q21C: -0.024 ± 0.097. In the case of Q21G, the abundance fitness is -0.241 ± 0.057. The figure for Q21F is -0.426 ± 0.2. The figure for Q21K is -0.361 ± 0.19. For Q21L, the abundance fitness worked out at 0.002 ± 0.055.

Turning to Q21N, the abundance fitness is -0.346 ± 0.39. The same measure for L50Y: -0.478 ± 0.37; for L50A: 0.005 ± 0.061; for L50S: 0.012 ± 0.066. The figure for L50E is -0.322 ± 0.24; for E69Q it is -0.001 ± 0.17; for E69C it is -0.062 ± 0.12. The same measure for E69N: -0.219 ± 0.14; for E69D: -0.349 ± 0.19. Take E69I: the abundance fitness was -0.248 ± 0.17.

For the variant R46T, the abundance fitness was -0.531 ± 0.19. The figure for R46Q is 0.122 ± 0.095; for R46H it is -0.118 ± 0.2; for R46M it is -0.12 ± 0.11.

In the case of P62M, the abundance fitness was -0.811 ± 0.29.

As for P62D, the abundance fitness is -0.18 ± 0.33.

For the variant P62Y, the abundance fitness is -0.827 ± 0.2. Consider P62F, for which the abundance fitness was -0.761 ± 0.24. In the case of P62H, the abundance fitness was -0.23 ± 0.2. The figure for P62G is -0.628 ± 0.11.

In the case of P62Q, the abundance fitness is -0.623 ± 0.16.

Turning to P62A, the abundance fitness is -0.668 ± 0.082.

Regarding P62N, the abundance fitness was -0.44 ± 0.26. Consider L3V, for which the abundance fitness was -0.153 ± 0.061. Consider L3R, for which the abundance fitness was -0.74 ± 0.1.

Take L3T: the abundance fitness is -0.327 ± 0.096. The same measure for I63N: -0.628 ± 0.33; for I63S: -0.224 ± 0.033.

Regarding I63F, the abundance fitness came to 0.164 ± 0.31.

On to D2N, for which the abundance fitness stood at 0.077 ± 0.14. The same measure for D2L: -0.568 ± 0.084. For the variant D2C, the abundance fitness is -0.511 ± 0.32. Take E4W: the abundance fitness was -0.234 ± 0.075. Consider E4P, for which the abundance fitness is -0.335 ± 0.057. Take E4M: the abundance fitness was -0.004 ± 0.047. E4H: the abundance fitness is -0.119 ± 0.12.

For the variant E4Q, the abundance fitness was -0.134 ± 0.069. With E4D, the abundance fitness was -0.282 ± 0.11. The same measure for E4R: -0.137 ± 0.054. Turning to E4G, the abundance fitness is -0.368 ± 0.063. For the variant E4V, the abundance fitness was -0.085 ± 0.058. In the case of E4I, the abundance fitness is -0.002 ± 0.1. The same measure for C45D: -0.135 ± 0.11.

C45A: the abundance fitness came out at 0.036 ± 0.071.

Regarding C45N, the abundance fitness turned out to be 0.091 ± 0.13. For the variant K61A, the abundance fitness is -0.178 ± 0.07. For the variant K61R, the abundance fitness amounted to 0.049 ± 0.071. The figure for K61W is -0.125 ± 0.08; for F47C it is -0.214 ± 0.24. Consider F47S, for which the abundance fitness is -0.996 ± 0.15. On to L17W, for which the abundance fitness is -0.589 ± 0.095.

As to L17Y, the abundance fitness is -0.778 ± 0.32. The figure for L17R is -0.733 ± 0.074; for S53L it is -0.729 ± 0.1; for S53Y it is -0.556 ± 0.18. With S53C, the abundance fitness is -0.514 ± 0.18. On to S53A, for which the abundance fitness is -0.163 ± 0.046. The same measure for S53H: -0.376 ± 0.15; for T51M: 0.077 ± 0.096. The same measure for T51V: -0.367 ± 0.079.

S40Y: the abundance fitness is -0.685 ± 0.2. Take S40G: the abundance fitness amounted to 0.014 ± 0.067. The figure for S40E is -0.15 ± 0.11. Consider S40C, for which the abundance fitness is -0.131 ± 0.084. The same measure for S40L: -0.671 ± 0.088.

As to S49I, the abundance fitness is -1.03 ± 0.46. For the variant S49M, the abundance fitness was -0.492 ± 0.36. Turning to S49G, the abundance fitness was determined as 0.055 ± 0.093. As to S49F, the abundance fitness was -0.651 ± 0.24. S49R: the abundance fitness came to 0.032 ± 0.07.

With S49H, the abundance fitness was -0.587 ± 0.3. The same measure for V36H: -0.267 ± 0.19. The figure for V36E is -0.139 ± 0.12; for V36C it is -0.4 ± 0.15. The figure for L64T is -0.769 ± 0.13; for L64Q it is -0.75 ± 0.17. Regarding L64I, the abundance fitness is -0.394 ± 0.097. For the variant L64G, the abundance fitness was -0.787 ± 0.12. Take L64P: the abundance fitness is -0.98 ± 0.12.

As to L64S, the abundance fitness is -0.669 ± 0.089. On to G18F, for which the abundance fitness is -0.892 ± 0.41. As for G18K, the abundance fitness is -0.47 ± 0.14. The same measure for G18M: -0.76 ± 0.21. The figure for G18S is -0.652 ± 0.078. The figure for I44K is -0.065 ± 0.23. For I44M, the abundance fitness is -0.87 ± 0.18.

On to I44V, for which the abundance fitness is -0.168 ± 0.075. The same measure for I44E: -0.652 ± 0.37; for L28H: -0.786 ± 0.19. The figure for L28V is -0.143 ± 0.094.
